For this series, the target named is recombinant TSHR-His (UniProt P16473 21-414). As to the kind of experiment: SPR; 5 mM Mg2+; kon 7.686e4 M-1s-1, koff 9.023e-4 s-1; 25 C; Flow: DPBS, 5 mM MgCl2, 4.5 g/L glucose, 0.1 mg/mL yeast tRNA, 1 mg/mL BSA, 4 C 30 min; SPR: DPBS, 5 mM Mg2+, pH 7.4, 25 C. The following applies: protein: commercial; tags: His; label: FAM (flow); biotin (pull-down); stem-loops (NUPACK predicted).

Results on 1 molecule are retold here after PMC12822413, “TSHR‐Targeting Nucleic Acid Aptamer Treats Graves' Ophthalmopathy via Novel Allosteric Inhibition”.

What is called Kd is the free concentration of one partner at which half of the binding sites on the other are occupied at equilibrium, for simple one-to-one binding.

Sequence of recombinant TSHR-His (P16473 21-414): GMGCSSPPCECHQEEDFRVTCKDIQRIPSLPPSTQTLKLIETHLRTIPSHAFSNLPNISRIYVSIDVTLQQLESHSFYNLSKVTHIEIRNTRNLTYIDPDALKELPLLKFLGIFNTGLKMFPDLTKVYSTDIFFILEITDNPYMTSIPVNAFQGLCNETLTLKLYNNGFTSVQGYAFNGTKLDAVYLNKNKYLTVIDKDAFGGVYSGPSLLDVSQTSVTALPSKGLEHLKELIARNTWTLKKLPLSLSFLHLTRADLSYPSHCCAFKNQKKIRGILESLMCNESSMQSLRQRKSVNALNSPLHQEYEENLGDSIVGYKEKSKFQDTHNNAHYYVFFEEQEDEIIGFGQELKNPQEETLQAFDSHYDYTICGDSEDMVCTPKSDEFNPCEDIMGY

B1: YC3 (structured_DNA)
DNA: ACCGACCGTGCTGGACTCAGATGAACAATCGATGGAAGATTGGGTCGCACCGGCCTCTTTCACTATGAGCGAGCCTGGCG
Take B1: the Kd was 11.7 nM.
